From US20250136694A1 (HARBOUR BIOMED SHANGHAI, published 2025)

T1: mouse B7-H4 on the cell surface (mouse, UniProt Q7TSP5 25-257)
T1 construct: whole, on cells; also called m B7-H4; CHO-K1/mB7-H4
T1 sequence (looked up): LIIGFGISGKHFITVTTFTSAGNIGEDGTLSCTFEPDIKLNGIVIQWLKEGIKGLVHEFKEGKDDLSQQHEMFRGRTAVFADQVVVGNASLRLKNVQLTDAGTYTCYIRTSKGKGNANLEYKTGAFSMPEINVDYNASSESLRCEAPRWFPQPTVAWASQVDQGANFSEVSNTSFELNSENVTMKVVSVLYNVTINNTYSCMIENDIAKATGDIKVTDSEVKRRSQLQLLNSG

T2: human B7-H4 on the cell surface (human, UniProt Q7Z7D3 25-282)
T2 construct: whole, on cells; also called hu B7-H4; CHO-K1/huB7-H4
T2 sequence (looked up): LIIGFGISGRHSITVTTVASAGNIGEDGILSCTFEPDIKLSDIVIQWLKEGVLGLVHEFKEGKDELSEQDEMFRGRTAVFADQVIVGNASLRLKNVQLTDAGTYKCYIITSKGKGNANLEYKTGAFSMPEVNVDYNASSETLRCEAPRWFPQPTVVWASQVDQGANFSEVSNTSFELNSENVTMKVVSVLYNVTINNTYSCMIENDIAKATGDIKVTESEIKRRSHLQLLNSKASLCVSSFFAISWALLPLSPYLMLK

T3: human B7-H4 (protein in solution, BLI) (human, UniProt Q7Z7D3 25-258, limits assumed)
T3 sequence (looked up): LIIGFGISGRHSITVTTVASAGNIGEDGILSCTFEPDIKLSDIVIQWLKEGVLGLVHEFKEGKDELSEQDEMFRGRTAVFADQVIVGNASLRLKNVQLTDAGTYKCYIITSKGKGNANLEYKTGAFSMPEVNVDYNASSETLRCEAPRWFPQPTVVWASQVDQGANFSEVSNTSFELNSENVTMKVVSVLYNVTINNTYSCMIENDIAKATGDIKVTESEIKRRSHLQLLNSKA

T4: cynomolgus monkey B7-H4 on the cell surface (cynomolgus monkey, UniProt A0A2K5U6P5 25-282)
T4 construct: whole, on cells; also called cyno B7-H4; CHO-K1/cynoB7-H4
T4 sequence: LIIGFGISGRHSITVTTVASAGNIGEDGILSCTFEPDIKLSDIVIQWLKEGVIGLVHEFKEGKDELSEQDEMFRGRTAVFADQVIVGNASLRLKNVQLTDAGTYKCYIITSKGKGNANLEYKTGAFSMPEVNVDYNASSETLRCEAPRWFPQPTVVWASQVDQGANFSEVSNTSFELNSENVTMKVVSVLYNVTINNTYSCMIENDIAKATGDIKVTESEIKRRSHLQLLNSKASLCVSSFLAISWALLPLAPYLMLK


How the values were obtained:
[1] = biological target: T1, mouse B7-H4 on the cell surface; experiment: FACS, CHO-K1/m B7-H4 cells
Procedure: (§1) Briefly, cells were digested and resuspended in PBS containing 2% FBS, and the cell density was adjusted to 1×10⁶ cells/mL. The cells were seeded in a 96-well V-bottom plate (Corning, Cat #3894) at 100 μL/well, followed by the addition of test antibodies 3-fold serially diluted at a concentration that was 2 times the final concentration, each at 100 μL/well. The cells were incubated away from light at 4° C. for 2 h. Then, the cells in each well were rinsed twice with 100 μL of pre-cooled PBS and centrifuged at 500 g at 4° C. for 5 min, and then the supernatant was discarded. […] The cells in each well were then rinsed twice with 100 μL of pre-cooled PBS and centrifuged at 500 g at 4° C. for 5 min, and then the supernatant was discarded. Finally, the cells in each well were resuspended in 200 μL of pre-cooled PBS, and the fluorescence signal values were read using ACEA Novocyte3000.

[2] = biological target: T2, human B7-H4 on the cell surface; experiment: FACS, MDA-MB-468 cells
Procedure: as §1

[3] = biological target: T3, human B7-H4 (protein in solution, BLI); experiment: BLI (Octet), antibody captured on AHC sensor, antigen in solution
Procedure: The binding kinetics between the antigen and the antibody was analyzed by the biolayer interferometry (BLI) technique using an Octet Red 96e molecular interaction analyzer (Fortebio).
When the affinity of the antigen for the antibody was determined, the rotation speed of the sensor was set at 1000 rpm/min. […] Finally, the AHC sensor was immersed in a 10 mM glycine-hydrochloric acid solution at pH 1.5 for regeneration to elute the proteins bound to the sensor.
When data analysis was performed using Octet Data Analysis software (Fortebio, version 11.0), 0 nM was taken as a reference well, and reference subtraction was performed; the “1:1 Global fitting” method was selected to fit the data, and the kinetics parameters of the binding of antigens to antigen-binding proteins were calculated, with kₒₙ(1/Ms) values, kdis(1/s) values, and KD(M) values obtained (see Table 3 and FIG. 2).

[4] = biological target: T4, cynomolgus monkey B7-H4 on the cell …; experiment: FACS, CHO-K1/cyno B7-H4 cells
Procedure: as §1

[5] = biological target: T2, human B7-H4 on the cell surface; experiment: FACS, CHO-K1/hu B7-H4 cells
Procedure: as §1

[6] = biological target: T1, mouse B7-H4 on the cell surface; experiment: FACS on CHO-K1/mB7-H4 cells
[7] = biological target: T2, human B7-H4 on the cell surface; experiment: FACS, CHO-K1/hu B7-H4 cells; remark: listed apart in the source
Procedure: as §1

Row | Binder | EC50 [1] | EC50 [2] | Maximum MFI [2] | Kd [3] | koff [3] | kon [3] | EC50 [4] | Maximum MFI [4] | EC50 [5] | binding result [6] | EC50 [7] | Maximum MFI [7]
1 | PR006008 (antibody, IgG1, V domains shown, also called R7004M6D4; anti-human B7-H4 HCAb monoclonal antibody) VH: EVQLVESGGGLVQPGGSLRLSCAASGFTFTDFWMHWVRQVPGKGREWVSRISPDGSSTSYEDSVKGRFTISRDNAKNTVYLQMHGLRAEDTAVYYCTRFSTGWHRIEYFQHWGQGTLVTVSS | 0.403 nM | 0.162 nM | 149000 MFI | 3.65 nM | 0.00114 s⁻¹ | 312000 M⁻¹ s⁻¹ | 0.432 nM | 1.25e+06 MFI | 1.07 nM | – | – | –
2 | PR007441 (antibody, IgG1, V domains shown, also called PTM variant (G55S) of PR006008) VH: EVQLVESGGGLVQPGGSLRLSCAASGFTFTDFWMHWVRQVPGKGREWVSRISPDSSSTSYEDSVKGRFTISRDNAKNTVYLQMHGLRAEDTAVYYCTRFSTGWHRIEYFQHWGQGTLVTVSS | 0.617 nM | 0.244 nM | 148000 MFI | – | – | – | 0.721 nM | 1.26e+06 MFI | – | – | – | –
3 | PR006004 (antibody, V domains shown, also called R7004M1A2; anti-human B7-H4 HCAb monoclonal antibody) VH: EVQLVESGGGLVQPGGSLRLSCAASGFAFSNYWMHWARQVPGKGRVWISRISGDGRSTSYADSVKGRFTISRDNAKNMVYLQMNNLRAEDTAVYYCARDRFGDDYYYGMNVWGQGTTVTVSS | – | 5.19 nM | 183000 MFI | 1.89 nM | 0.000396 s⁻¹ | 210000 M⁻¹ s⁻¹ | 1.65 nM | 1.57e+06 MFI | 4.86 nM | no binding (tested: 100 nM) | 2.75 nM | 1.63e+06 MFI
4 | PR007440 (antibody, IgG1, V domains shown, also called PTM variant (G55S) of PR006004) VH: EVQLVESGGGLVQPGGSLRLSCAASGFAFSNYWMHWARQVPGKGRVWISRISGDSRSTSYADSVKGRFTISRDNAKNMVYLQMNNLRAEDTAVYYCARDRFGDDYYYGMNVWGQGTTVTVSS | – | 9.18 nM | 185000 MFI | – | – | – | 3.06 nM | 1.59e+06 MFI | – | no binding (tested: 100 nM) | – | –
5 | PR007200 (antibody, IgG1, V domains shown, also called charge variant of PR006004 (V46E, G55S, R56S)) VH: EVQLVESGGGLVQPGGSLRLSCAASGFAFSNYWMHWARQVPGKGREWISRISGDSSSTSYADSVKGRFTISRDNAKNMVYLQMNNLRAEDTAVYYCARDRFGDDYYYGMNVWGQGTTVTVSS | – | – | – | – | – | – | – | – | – | – | 5.39 nM | 1.48e+06 MFI
6 | PR007202 (antibody, IgG1, V domains shown, also called charge variant of PR006004 (V46E, G55S, R56T)) VH: EVQLVESGGGLVQPGGSLRLSCAASGFAFSNYWMHWARQVPGKGREWISRISGDSTSTSYADSVKGRFTISRDNAKNMVYLQMNNLRAEDTAVYYCARDRFGDDYYYGMNVWGQGTTVTVSS | – | – | – | – | – | – | – | – | – | – | 5.58 nM | 1.51e+06 MFI
7 | PR007203 (antibody, IgG1, V domains shown, also called charge variant of PR006004 (V46E, G55S, R56T, A61E)) VH: EVQLVESGGGLVQPGGSLRLSCAASGFAFSNYWMHWARQVPGKGREWISRISGDSTSTSYEDSVKGRFTISRDNAKNMVYLQMNNLRAEDTAVYYCARDRFGDDYYYGMNVWGQGTTVTVSS | – | – | – | – | – | – | – | – | – | – | 5.41 nM | 1.53e+06 MFI
8 | PR007196 (antibody, IgG1, V domains shown, also called charge variant of PR006004 (V46E, G55S, R56E)) VH: EVQLVESGGGLVQPGGSLRLSCAASGFAFSNYWMHWARQVPGKGREWISRISGDSESTSYADSVKGRFTISRDNAKNMVYLQMNNLRAEDTAVYYCARDRFGDDYYYGMNVWGQGTTVTVSS | – | – | – | – | – | – | – | – | – | – | 3.72 nM | 971000 MFI
9 | PR007201 (antibody, IgG1, V domains shown, also called charge variant of PR006004 (V46E, G55S, R56S, A61E)) VH: EVQLVESGGGLVQPGGSLRLSCAASGFAFSNYWMHWARQVPGKGREWISRISGDSSSTSYEDSVKGRFTISRDNAKNMVYLQMNNLRAEDTAVYYCARDRFGDDYYYGMNVWGQGTTVTVSS | – | – | – | – | – | – | – | – | – | – | 5.5 nM | 1.46e+06 MFI
10 | PR007195 (antibody, IgG1, V domains shown, also called charge variant of PR006004 (V46E, G55S, R56D, A61E)) VH: EVQLVESGGGLVQPGGSLRLSCAASGFAFSNYWMHWARQVPGKGREWISRISGDSDSTSYEDSVKGRFTISRDNAKNMVYLQMNNLRAEDTAVYYCARDRFGDDYYYGMNVWGQGTTVTVSS | – | – | – | – | – | – | – | – | – | – | 5.65 nM | 1.58e+06 MFI
